Measurements reported in paper doi:10.1101/2024.01.24.576984 (bioRxiv, 2024).

Columns and labels:
2S-hsINTS13-hsINTS14 = 2S-hsINTS13-hsINTS14 (human, UniProt Q9NVM9;Q96SY0); experiment: fluorescence polarisation
hsINTS13(1-256Δ27-48) = hsINTS13(1-256Δ27-48) (human, UniProt Q9NVM9 1-256, Δ27-48); experiment: crystal structure

| Kd (2S-hsINTS13-hsINTS14) | binding result (hsINTS13(1-256Δ27-48)) | Binder |
| --- | --- | --- |
| 573 nM | – | DEWDIGVGNLIIDLDAD [GFP-hsZNF609 (25-41)] |
| 2630 nM | – | EGEEDEEGKLVIDEPAK [GFP-hsHDGF S2E (130-146)] |
| 17.6 nM | – | EDRLERLQEILRKFLYLEREFRQITIS [GFP-hsZNF655 (93-119)] |
| 5850 nM | – | EGSSDEEGKLVIDEPAK [GFP-hsHDGF (130-146)] |
| > 10000 nM | – | DTGSETDEEDKLHIAEDD [GFP-hsZEB2 (33-50)] |
| > 10000 nM | – | YDSDGDKSDDLVVDVSNE [GFP-hsTLE3 (238-255)] |
| 633 nM | – | DDWEIGVGNLIIDLDAD [GFP-hsZNF608 (24-40)] |
| – | binds | EDRLERLQEILRKFLYLEREFRQITIS [hsZNF655(93-119)] |
